What was measured:
[1] = Heat stability of activity; assay type: physicochemical
[2] = system: Clostridium bifermentants; assay: Growth inhibition; assay type: cell-based
Bacillus cereus = assay: Growth inhibition; assay type: cell-based
[3] = system: Flavobacterium capsulatum; assay: Growth inhibition; assay type: cell-based; settings: a Gram-negative strain
[4] = system: Staphylococcus epidermidis 1656; assay: Sensitivity titer of multi-drug resistant staphylococci clinical isolates; assay type: cell-based; settings: resistant to AM-K-S-CF-E-P-Cl-TE
Protocol: (§1) Trypticase Soy Agar (Difco Laboratories, Detroit, Mich.) plates enriched with 0.3% yeast extract were overlaid with 5 ml of melted TSAYE containing a standardized suspension (0.2 ml of an exponentially growing culture at an optical density of 0.1 at 600 nm) of Micrococcus luteus ATCC 272 (ATCC, Rockville, Md.). In order to assess the activity of mutacin samples, two-fold dilutions were prepared in 0.11% TFA (Sigma Chemical Co., St. Louis, Mo.) and 5 μl of each dilution deposited on top of the indicator plates. Mutacin activity was expressed in arbitrary units, which correspond to the reciprocal of the last dilution giving a clear inhibition zone against M. luteus after 24 h of incubation at 37° C. under aerobic conditions (Parrot et al., 1989, Can. J. Microbiol. 35:366-372).
(§2) The sensitivity of multi-drug resistant strains to mutacin B-Ny266 purified to homogeneity was assessed. In parallel the sensitivity of these strains to nisin was determined.

[5] = system: Staphylococcus haemolyticus 2344; assay: as above; assay type: cell-based; settings: resistant to AM-K-S-CF-E-P-Cl-TE
Protocol: as §1, §2

[6] = system: Staphylococcus epidermidis 3176; assay: as above; assay type: cell-based; settings: resistant to AM-GM-K-CF-E-P-Cl
Protocol: as §1, §2

[7] = Polarity calculation from RP-HPLC elution; assay type: physicochemical; settings: calculated from elution at 33.3% acetonitrile, RP-HPLC C18 (Snyder formula)
Protocol: The polarity was calculated from the percentage of acetonitrile at which the substance eluted according to the formula given by Snyder (Snyder, L. R., 1978, Chromatogr. Sci. 16:223-234).

[8] = system: Micrococcus luteus ATCC 272; assay: Sensitivity titer on a lawn of the tested strain (control strain); assay type: cell-based; settings: Micrococcus luteus ATCC 272 (control); antibiotic resistance: None
Protocol: as §1, §2

Neisseria subflava = assay: Growth inhibition; assay type: cell-based
[9] = Stability of activity to enzymes; assay type: physicochemical

## Mutacin B-Ny266: type A lantibiotic produced by Streptococcus mutans B-Ny266; F-K-A-W-U-F-A-Abu-P-G-A-A-K-O-G-A-F-N-U-Y-A-SADC
[1]; 100° C. for 30 min
  resistance to temperature: resistant
[1]; 121° C. for 30 min
  activity after heat treatment: destroyed
[2]
  growth inhibition: inhibits the growth
Bacillus cereus
  growth inhibition: inhibits the growth
[3]
  growth inhibition: inhibit
[4]
  titer (highest dilution producing an inhibitory zone on a lawn of the tested strain): 16
[5]
  titer (highest dilution producing an inhibitory zone on a lawn of the tested strain): 16
[6]
  titer (highest dilution producing an inhibitory zone on a lawn of the tested strain): 16
[7]
  polarity: 8.067
[8]
  titer (highest dilution producing an inhibitory zone on a lawn of the tested strain): 64
Neisseria subflava
  growth inhibition: inhibits the growth
[9]; alpha-chymotrypsin
  activity after enzyme treatment: destroyed
[9]; many enzymes
  resistance to enzymes: resistant
[9]; papain
  activity after enzyme treatment: destroyed
[9]; pronase E
  activity after enzyme treatment: destroyed
[9]; proteinase K
  activity after enzyme treatment: destroyed
[9]; trypsin
  activity after enzyme treatment: destroyed
